In the nanobody polyreactivity screen of Harvey et al. (2022):

Assay: yeast display, Sf9 membrane polyspecificity reagent, FACS + sequencing; frameworks hold sequencing errors
Procedure, shortened: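 Using colony PCR, genes from sorted yeast display clones were amplified, then sequenced on MiSeq at 2 × 250 and filtered by CDR length. The clones had been stained with 10% biotinylated, detergent-solubilized Sf9 membrane reagent for 1 hour at 4 °C and sorted by FACS into low and high (top ~1%) gates on anti-HA and streptavidin fluorescence. Polyreactivity labels come from the gate of origin.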

QVQLVESGGGLVQAGGSLRISCAASGRIFGYYGMGWSRQAPGKERELVAAITSNAGRTYYADSVKGRFTISRDNSKNTVYLQMNSLKPEDTAVYYCAATSKGSYGRQGYDYWGQGTQVTVSS
polyreactivity (PSR sort gate): low polyreactivity

QVQLVESGGGLVQAGGSRRLSCAAAGIIFYAYAMGWYRQAPGKEREFVARISRGGSTNYADSVKGRFTLSRDNAKNTVYLQMNSLKPEDTAVYYCAAYYAYLRYGGLYEYWGQGTQVTVSS
polyreactivity (PSR sort gate): high polyreactivity

QVQLVESGGGLVQAGGSLRLSCAASGRIFEINAMGWYRQAPGKERELVAGISYSGGSTYYADSVKGRFTISRDNAKNTVYLQMNSLKPEDTAVYYCAALFQSYQITYDSWGQGTQVTVSS
polyreactivity (PSR sort gate): low polyreactivity

QVQLVESGGGLVQAGGSLRLSCAASGRTFLVYTMGWYREAPGKERELVAAISWSDGSTYYADSVKGRFTISRDNAKNTVYLQMNSLKPEDTADYYCAARRTGYLYRYGYWGQGTQVTVSS
polyreactivity (PSR sort gate): low polyreactivity

QVQLVESGGGLVQAGGSLRLSCAASGRIFYRYAMGWYIQAPWKERELVASISLSGDSTYYADSVKGRFTISRDNAKNTVYLQMNSLKREDTAFYYCDVEGLGAAVYAGDRYDYWGQGTQVTVSS
polyreactivity (PSR sort gate): low polyreactivity

QVQLVESGGGLVQAGGSLRLSCAASGFIFPLYTMGWDRQAPGKERELVAAISVTGGSTYYADSVKGRFTISRDNAKNTVYLQMNSLKPEDTAVYYCAADLYYIWVYGYSSAMDYWGQGTQVTLSS
polyreactivity (PSR sort gate): high polyreactivity

QVQLVESGGGLVQAGGSLRLSCAASGSIFSGNAMGRYRQAPGKERELVAAISRSGGSTYYADSVKGRFTISRDNAKNTVYLQMNSLKPEDTAVYYCAAYRTHGPPRAIRFDYWGQGTQVTVSS
polyreactivity (PSR sort gate): high polyreactivity

QVQLVESGGGLVQAGGSLRLSCAASGIIFSGYVMGWYRQAPGKERELVAAISSGGSTYYADSVKGRFTISRDNAKNTVYLQMNSLKPEDTAVYYCAAAGYWTLGYGYWGQGTQVTVSS
polyreactivity (PSR sort gate): low polyreactivity

QVQLVESGGGLVQAGGSLRLSCAASGRIFWGNAMGWYRQAPGKEREFVAGITGIGGRTYYADSVKGRFTISRDNAKNTVYLQMNSLKPEDTAVYYCARTWAVSYGYAMDYWGQGTQVTVSS
polyreactivity (PSR sort gate): low polyreactivity

QVQRVESGGGLVQAGGSLRLSCAASGRTFGPNAMGCYRQSPGKERELVAAITSGGRTYYADSVKGRFTISRDNAKNTVYLQMNSLKPEDTAVYYCAASYRWRSSGKGKYDYWGQGTQVTVSS
polyreactivity (PSR sort gate): high polyreactivity

QVQLVESGGGLVQAGGSLRLSCAASGRTFRKYAMGWYRQAPGKEMELVAGITSIGGRTYYADSVKGRFTISRDNAKNTVYLQMNSLKPEDTAVYYCAADSIGRKNWSLHSNYWGQGTQVTVSS
polyreactivity (PSR sort gate): low polyreactivity

QVPLVESGGGLVQAGGSLRLSCAASGLIFRTYTMGWYRQAPGKERELVATITRRGGTTYYADSVKGRFTLSRDNAKNTVYLQMNSLKPEDTAVYYCAKSPYYTWKYDYWGQGTQVTVSS
polyreactivity (PSR sort gate): high polyreactivity

QVQLVDSGGGLVQAGGSLRLSCAASGLTFGFNAMGWYRQAPGKERELVAAISSGGSTYYADSVKGRFTISRDNAKNTVYLQMNSLKPEDTAVYYCATSVRQYGRTTYYYWGQGTQVTVSS
polyreactivity (PSR sort gate): high polyreactivity

QVQLVESGGGLVQAGGSLRLSCAASGNTFRWYVMGWYRQAPGKERELVAAITSSGSTTYYADSVKGRFTISRDNAKNTVYLQMNSLKPEDTAVYYCAADGRTITYSPVDYDSWGQGTQVTVSS
polyreactivity (PSR sort gate): low polyreactivity

QVQLVESGGGLVQAGGSLRLSCAASGRILTLNAMGWYRPAPGKERELVASIRSTGRTYYADSVKWRFTISRDNAMNTVYLQMNSLKPEDTAVYYCAADTRYRYGAYPYYEYDYWGQGTQVTVSS
polyreactivity (PSR sort gate): low polyreactivity

QVQLVESGGGLVQAGGSLRLSCAASGGIIGWNAMGWYRQAPGKERELVATISWSGGSTYYADSVKGRFTISRDNAKNTVYLQMNSLKPEDTAVYYCAVARSAYWYRPAYDYWGQGTQVTVSS
polyreactivity (PSR sort gate): high polyreactivity

QVQLVDSGGGLVQAGGSLRLSCAASGYTFEIYAIRWYRQAPGKERELVAAITRSGDSTYYADSVKGRFTISRDNSKNTVYLQMNSLKPEDTAVYDCNADYPGQYDSWGQGTQVTVSS
polyreactivity (PSR sort gate): low polyreactivity

QVQLVESGGGLVQAGGSLRLSCAASGLIFGRYAMGWYRQAPGKERELVAAITGRGGSTYYADSVKGRFTISRDNAKNTVYLQMNSLKPEDTAVYYCNKVYNPKSYIQYDYWGQGTQVTVSS
polyreactivity (PSR sort gate): high polyreactivity

QVQLVESGGGLVQAGGSLRLSCAASGYIFLTNAMGWYRPAPGKERELVAAISVSGGRTYYADSVKGRFTISRDNAKNTVYLQMNSLKPEDTAVYYCNTLLTYGYDYWGQGTQVTVSS
polyreactivity (PSR sort gate): low polyreactivity

QVQLVESGGGLVQAGGSLRLSCAASGSIFLKYVMGWYRQATGKEMELVAAISSAGGTYYADSVKGRFTISRDNEKYTVYLQMICLKPEDTAVYYCGRRPYRGSYAYDYWGQGSQVTVSS
polyreactivity (PSR sort gate): low polyreactivity

QVHLVESGGGLVQAGGSLRLSCAASGFTIASYDMGWYRQAPGKERELVAAISKGGGRTYYADSVKGRFTISRDNSKNTVYLQMNSLQPEDTAVYYCAAYAPYPRRAYDYWGQGTQVTVSS
polyreactivity (PSR sort gate): low polyreactivity

QVQLVESGGGLVQAGGSLRLSCAASGSTFYWYAMGWYRQAPGKERQLVAAITRNAGSTYYADTVKGRFTISRDNAKNTVYVQMNSLKPEDTAVSYCAADGARSAFLLAYYYWGQGTQVTGSS
polyreactivity (PSR sort gate): low polyreactivity

QVQLVESGGGLVQAGGSLRLSCAASGSTFRYYAMGWYRQAPGKERELVASISSGGSTNYADSVKGRFTISRDNAKNTVYLQMNSLKPEDTAVYYCNADSWTVNRRYYYYRYEYWGQGTQVTVSS
polyreactivity (PSR sort gate): low polyreactivity

QVQLVESGGGLVQAGGSLRLSCAASGSIFLKYTMGWYRQAPGKERELVAAITSGGTTNYADSVKGRFTISRDNAKNTVYLQMNSLKPEDTAVYYCARDSYQLGLIRDPLEYDYWGQGTQVTVSS
polyreactivity (PSR sort gate): low polyreactivity

QVQLVESGRGLVQAGGSLRLSCAASGNTLLKNAMGWYRQAPGKERELVAAISSSGGRTYYADSVKGRFTISRDNAKNTVYLQMNSLKQEDTAVYYCAARYPSGYYYWGQGTQVTVSS
polyreactivity (PSR sort gate): high polyreactivity

QVQLVESGGGLVQAGGSLRLSCAASGSIFFLYAMGWYRQATGKEREFVAAITGTADSTYYADSVKGRFTISRDDAKNTVYLQMNSLNPEDTAVYYCATDYWSSVKLDDYWGQGTQVTVSS
polyreactivity (PSR sort gate): low polyreactivity

QVQLVESGGGLVQAGGSLRLSCAASGSTYGGNAMGWYRQAPGKERELVAAISRSGSRTYYADSVKGRFTISRDNAKNTVYLQMNSLKPEDTAVYYCAARRWVWTVRYNYWGQGTQVTVSS
polyreactivity (PSR sort gate): high polyreactivity

QVQLVESGGGLVQAGGSLRLSCAASGRTFYPNVMGWYRQAPGKERELVAAISISGGSTRYADSVKGRFTISRDNAKNTVYLQMNSLKPEDTAVYYCAAGYIYWYYSYDYWGQGTQVTVSS
polyreactivity (PSR sort gate): high polyreactivity

QVQLVESGGGLVQAGGSLRLSSAASGSTFPSYAMGWYRQAPGKERELVAAINSGGGTNYADSVKGRFTISRDNAKNTVYLQMNSLKPEDTAVYYCAKSRYDYTKTEGGYWGLGTQVTVSS
polyreactivity (PSR sort gate): low polyreactivity

QVQLVESGGGLVQAGGSLRLSCAASGRIFDGYDMGWYRQAPGKERELVAAITSVGSTNYADSVKGRFTISRDNAKNTVYLQMNSLKPEDTAVYYCAAVLYVFYDEYGYWEYFSQYDYWGQGTQVTVSS
polyreactivity (PSR sort gate): low polyreactivity

QVQLVESGGGLVQAGGSLRLSCAASGRTCGSNVMGWYRQAPGKERELVAAISRSGGSTHYADSVKGRFTISRDKAKNSVYLQMKSLNPEDTAVYYCAARYSGGSAYGYGSLGQGTQVTVSS
polyreactivity (PSR sort gate): high polyreactivity

QVQLVESGGGLVQAGGSLRLSCAASGFTFRAYAMGWYRQAPGKERELVAAISTSGGSTYYADSVKGRFTISRDNAKNTVYLQMNSLKPEDTSVYYCAKRGLQGYWSPYNYWGQGTQVTVSS
polyreactivity (PSR sort gate): high polyreactivity

QVQLVESGGGLVQAGGSLRLSCAASGRIFHGYAMGWYRQAPGKERELVAVIRSGVNTNYADSVKGRFTISRDNAKNTVYLQMNSLKPEDTAVYYCAVDYTPEDWGDDYWGQGTQVTVSS
polyreactivity (PSR sort gate): low polyreactivity

QVQLVESGGGLVQAGGSLRLSCAASGRIFQRYAMGWSRQAPGKERELVAPISWSVSSTYYADSVKGRFTISRDNAKNTVYLQMNSLKPEDTAVYYCNAAFHVTLGYLYREYDYWGQGTQVTVSS
polyreactivity (PSR sort gate): high polyreactivity

QVQLVESGGGLVQAGGSLRLSCAASGRTFRYYAMGWYRQAPGKEREFVAAITRSAVSTYYADSVKGRFTISRDNAKNTVYLQMNSLKPEDTAIYYCAVDSSLVKVGFDYWGQGTQVTVSS
polyreactivity (PSR sort gate): high polyreactivity

QVQLVESGGGLVQAGGSLRLICAASGSIFGVYAMGWYSQAPGKERELVATITRGGSTYYADSVKGRFTISRDNAKNTGYLQMNSLKPEDTSVYYGARAPVYFRHKYYYWGQGTQVTVSS
polyreactivity (PSR sort gate): high polyreactivity

QVQLVESGGGLVQAGGSLRLTCAASGSTFIFKKYVMGWYRQAPGSERELVAVISRRGDSTYYADSVKRPFTISRDNAKNTVYLQMNSLKPEDTAVYYCGAGYSTAGLARYDYWGQGTQVTVSS
polyreactivity (PSR sort gate): high polyreactivity

QVQLVESGGGLVQSGGSLRLSSAAYGNTFFPYTIGRYRQAPGKERELVAAISWNGGTTYYADSVKGRFTISRDNAKNTVYLQMISLKPEDSAVYYCAAPRASGYYWGQGTQVTVSS
polyreactivity (PSR sort gate): high polyreactivity

QVQLVESGGGLDQAGGSLRLSCAASGRIFTYYTMGWYRQAPGKERELVATIRWSGGRTYYADSVKGRFTISRDNAKNTVYLQMNSLKPEDTAVYYCAANTYWRHYTPYTYGYWGQGTQVTVSS
polyreactivity (PSR sort gate): high polyreactivity

QVQLVESGGGLVQAGGSLRLSCAASGRTFKNYAMGWYRQSPGKERELVAVISRRGSSTYYADSVKGRFTISRDNAKNTVYLQMNSLKPEDTAVYYSAARLGVPYPYIAYDYWGQGTQVTVSS
polyreactivity (PSR sort gate): high polyreactivity

QVQLVESGGGLVQAGGSLRLSCAASGSTFDIYAMGWYRQAPGKERELVAAIRGRGGSTYYADSVKGRFTISRDNAKNTVYFQMNSLKPEDTAVYYCAADSYATRYYYWGQGTQVTVSS
polyreactivity (PSR sort gate): high polyreactivity

QVHLVESGGGLVQAGGSLRLRCAASGYPFKRNDMGWYRHAPGKETQFVPAISKSGGSTYYADSVKGRFTISRDNAKNSVYLQRNSLKPEDTAVSYCAATRGLYRYWGRDKFDYWGQGTQVTVSS
polyreactivity (PSR sort gate): low polyreactivity

QVQLVESGGGLVQAGGSLRLSCAASGSTFHWYDMGWYRPAPGKERELVAGINSSGDGTYYADSVKGRFTISRDNAKNTVYLQMNSLKPEDTAVYYCAAEYYTYWGYEDDYWGQGTQVTVSS
polyreactivity (PSR sort gate): low polyreactivity
